Test: H3-heparin binding assay, recombinant AAMP blotted onto Immobilon-P
Conditions: tritiated heparin 2.5 U/mL
Protocol: Heparin binding assays utilizing competition of tritiated heparin (heparin sodium salt, [^3 H(G)]-, NEN DuPont), with unlabeled heparin, were performed for recombinant AAMP, solubilized P189 (immobilized on CovaLink™ plates), and for aggregated P189 in 0.1% BSA-DMEM solutions. Recombinant AAMP in bacterial lysate and bovine serum albumin in equal amounts were electrophoresed for gel purification, and blotted onto Immobilon-P™. These blots were incubated 3 hours with tritiated heparin, 2.5 U/mL (10.7 uCi/mL) at room temperature, alone and with increasing amounts of unlabeled heparin (0.125-0.25 U/mL) for competition. Following 3 washes, the bands of AAMP recombinant protein and BSA (triplicates for each heparin concentration) were cut from the blotted Immobilon P strips, placed in scintillation vials, and counted for comparisons. Solubilized P189 (6.25 ug/mL) was immobilized on CovaLink™ plates, as described previously, and incubated one hour at room temperature with tritiated heparin, […] (0.213 uCi/mL), alone and with increasing amounts of unlabeled heparin (50-500 U/mL) for competition. Following three washes, the plate wells, in duplicates or triplicates for each heparin concentration, were placed in scintillation vials and counted. In separate assays, aggregates of P189 (200 ug/mL in 0.1% BSA-DMEM) were incubated one hour on a rocker at room temperature with tritiated heparin (0.05 U/mL) alone and with increasing amounts of unlabeled heparin (0.05-5 U/mL) for competition. Following centrifugation,the precipitate was washed with 0.1% BSA-DMEM, centrifuged again, and then transferred to scintillation vials for counting. The background cpm/umole protein levels for assays with AAMP recombinant protein competed with unlabeled heparin, were standardized to AAMP recombinant protein's average background cpm/umole protein with no labeled heparin present.

B1: Recombinant AAMP: Recombinant human cell adhesion protein AAMP, gel purified from bacterial lysate (SEQ ID NO:7) (protein)
chain: GPEKWIRRLRRMESESESGAAADTPPLETLSFHGDEEIIEVVELDPGPPDPDDLAQEMEDVDFEEEEEEEGNEEGWVLEPQEGVVGSMEGPDDSEVTFALHSASVFCVSLDPKTNTLAVTGGEDDKAFVWRLSDGELLFECAGHKDSVTCAGFSHDSTLVATGDMSGLLKVWQVDTKEEVWSFEAGDLEWMEWHPRAPVLLAGTADGNTWMWKVPNGDCKTFQGPNCPATCGRVLPDGKRAVVGYEDGTIRIWDLKQGSPIHVLKGTEGHQGPLTCVAANQDGSLILTGSVDCQAKLVSATTGKVVGVFRPETVASQPSLGEGEESESNSVESLGFCSVMPLAAVGYLDGTLAIYDLATQTLRHQCQHQSGIVQLLWEAGTAVVYTCSLDGIVRLWDARTGRLLTDYRGHTAEILDFALSKDASLVVTTSGDHKAKVFCVQRPDR
- tritiated heparin binding, cpm above background per umole protein, with competition by equal amount of cold heparin (1:1 unlabeled heparin, 3 assays, S.D.): 2139 cpm/umole protein
- tritiated heparin binding, cpm above background per umole protein, without competition (6 assays, S.D.): 9134+/-2699 cpm/umole protein
- tritiated heparin binding, times more than background (BSA) (approx. 15 ug protein on Immobilon-P, 6 assays): 2.2+/-0.4 times

Reference: patent US6274134A, “Human cell adhesion protein AAMP-1 and uses thereof” (National Institutes of Health, priority 1993, dated 2001)
